Paper PMC7619409 (Molecular cell, 2024)

T1: Arp6 subunit (yeast, UniProt Q12509 1-438)
T1 construct: Stood in the assay as part of m1
T1 sequence: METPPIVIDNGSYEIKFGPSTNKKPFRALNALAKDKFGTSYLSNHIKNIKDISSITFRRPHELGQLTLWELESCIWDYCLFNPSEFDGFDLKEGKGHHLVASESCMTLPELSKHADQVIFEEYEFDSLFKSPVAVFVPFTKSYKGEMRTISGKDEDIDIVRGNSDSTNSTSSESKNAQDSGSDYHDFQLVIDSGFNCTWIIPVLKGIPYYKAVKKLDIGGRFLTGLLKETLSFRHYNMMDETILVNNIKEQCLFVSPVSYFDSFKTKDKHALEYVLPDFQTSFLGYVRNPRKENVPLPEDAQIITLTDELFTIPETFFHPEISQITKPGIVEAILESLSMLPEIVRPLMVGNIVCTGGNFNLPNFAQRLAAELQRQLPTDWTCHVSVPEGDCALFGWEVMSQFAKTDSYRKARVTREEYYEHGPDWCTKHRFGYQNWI

B1: Swc6 subunit (natural protein, yeast)
chain: MKALVEEIDKKTYNPDIYFTSLDPQARRYTSKKINKQGTISTSRPVKRINYSLADLEARLYTSRSEGDGNSISRQDDRNSKNSHSFEERYTQQEILQSDRRFMELNTENFSDLPNVPTLLSDLTGVPRDRIESTTKPISQTSDGLSALMGGSSFVKEHSKYGHGWVLKPETLREIQLSYKSTKLPKPKRKNTNRIVALKKVLSSKRNLHSFLDSALLNLMDKNVIYHNVYNKRYFKVLPLITTCSICGGYDSISSCVNCGNKICSVSCFKLHNETRCRNR
notes: Stood in the assay as part of m1
B2: Swc5 subunit (natural protein, yeast)
chain: MPEVETKIIPNEKEDEDEDGYIEEEDEDFQPEKDKLGGGSDDSDASDGGDDYDDGVNRDKGRNKVDYSRIESESGGLIKTRRARQAEEEYAKTHKYESLTVESIPAKVNSIWEELQEASKNRLLSSSGKVGSVLDGSKEARSTTAAQQEDKILIERNYKFAGETVHEKKWVSRSSAEGQEYLNSLKFKQQAPAAPVQLEKAVRTKSNESRQHLRRPLKRPPLLEQIISGGLRPKLTTLEKSQLDWASYVDRAGLNDELVLHNKDGFLARQEFLQRVGSAEDERYKELRRQQLAQQLQQDSEAS
notes: residues 196-303 built in the structure; Stood in the assay as part of m1

Legend:
Assay in all cases: cryo-EM structure; SWR1-hexasome complex, 3.5 Å; SWR1 premixed 1:1 with hexasome, 1 mM ADP:BeF, 25 mM HEPES pH 7.5, 50 mM NaCl, 30°C 10 min, glycerol gradient, no crosslinking
Conditions in all cases: both partners purified
Arp6 subunit = target: T1, Arp6 subunit
S. cerevisiae histone H4 = S. cerevisiae histone H4 (S. cerevisiae, UniProt P02309 1-103)
Swr1 subunit = target: T2, Swr1 subunit (yeast, UniProt Q05471 1-1514)
T2 construct: Stood in the assay as part of m1; also called Swr1 motor domains
T2 sequence (Q05471 whole entry, the tested form may be a part): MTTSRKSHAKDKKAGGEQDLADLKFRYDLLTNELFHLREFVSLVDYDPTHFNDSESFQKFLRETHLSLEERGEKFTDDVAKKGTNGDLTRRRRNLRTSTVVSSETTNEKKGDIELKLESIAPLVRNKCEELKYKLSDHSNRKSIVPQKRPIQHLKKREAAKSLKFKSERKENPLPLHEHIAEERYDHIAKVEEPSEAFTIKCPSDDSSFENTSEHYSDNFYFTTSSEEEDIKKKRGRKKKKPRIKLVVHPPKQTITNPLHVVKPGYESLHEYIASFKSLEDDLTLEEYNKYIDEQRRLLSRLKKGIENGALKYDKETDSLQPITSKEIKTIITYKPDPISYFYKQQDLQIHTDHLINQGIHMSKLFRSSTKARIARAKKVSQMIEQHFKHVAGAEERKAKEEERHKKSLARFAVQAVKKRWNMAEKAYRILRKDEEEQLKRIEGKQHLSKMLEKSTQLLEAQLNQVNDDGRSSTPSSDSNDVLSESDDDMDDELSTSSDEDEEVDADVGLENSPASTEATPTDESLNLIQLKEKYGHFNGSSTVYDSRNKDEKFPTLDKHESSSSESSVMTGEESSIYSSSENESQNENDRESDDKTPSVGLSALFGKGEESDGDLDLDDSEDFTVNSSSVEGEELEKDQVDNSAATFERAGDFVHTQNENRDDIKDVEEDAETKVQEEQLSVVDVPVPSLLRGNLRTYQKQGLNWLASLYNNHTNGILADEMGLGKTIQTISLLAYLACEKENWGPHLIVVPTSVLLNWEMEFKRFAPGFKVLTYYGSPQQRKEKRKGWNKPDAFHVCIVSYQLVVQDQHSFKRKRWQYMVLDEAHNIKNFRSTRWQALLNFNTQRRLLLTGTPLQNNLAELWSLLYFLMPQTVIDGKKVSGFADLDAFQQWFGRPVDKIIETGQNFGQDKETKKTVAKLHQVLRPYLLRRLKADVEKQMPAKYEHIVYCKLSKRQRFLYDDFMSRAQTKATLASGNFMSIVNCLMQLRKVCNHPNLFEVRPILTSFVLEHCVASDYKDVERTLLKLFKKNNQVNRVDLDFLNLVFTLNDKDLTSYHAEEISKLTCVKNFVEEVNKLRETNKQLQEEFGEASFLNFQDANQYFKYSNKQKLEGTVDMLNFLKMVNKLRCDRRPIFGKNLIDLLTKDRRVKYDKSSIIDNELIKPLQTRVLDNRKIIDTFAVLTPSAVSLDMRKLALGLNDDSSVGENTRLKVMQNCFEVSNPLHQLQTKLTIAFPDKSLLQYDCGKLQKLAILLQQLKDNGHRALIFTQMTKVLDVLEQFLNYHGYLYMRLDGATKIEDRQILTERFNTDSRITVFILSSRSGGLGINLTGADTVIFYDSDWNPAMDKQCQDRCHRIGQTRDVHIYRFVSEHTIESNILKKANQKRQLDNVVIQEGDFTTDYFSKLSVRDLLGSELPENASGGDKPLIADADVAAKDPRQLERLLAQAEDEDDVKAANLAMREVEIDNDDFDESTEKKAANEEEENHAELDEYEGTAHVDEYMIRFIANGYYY

| Binder | binding result (Arp6 subunit) | binding result (S. cerevisiae histone H4) | binding result (Swr1 subunit) |
| --- | --- | --- | --- |
| B1 | binds |  |  |
| B2 |  | binds | binds |
